First the molecules themselves.
T1: human CD123-Fc-His fusion protein (internal source) (human, UniProt P26951 19-305)
T1 construct: not shown: Fc and His tag
T1 sequence (looked up): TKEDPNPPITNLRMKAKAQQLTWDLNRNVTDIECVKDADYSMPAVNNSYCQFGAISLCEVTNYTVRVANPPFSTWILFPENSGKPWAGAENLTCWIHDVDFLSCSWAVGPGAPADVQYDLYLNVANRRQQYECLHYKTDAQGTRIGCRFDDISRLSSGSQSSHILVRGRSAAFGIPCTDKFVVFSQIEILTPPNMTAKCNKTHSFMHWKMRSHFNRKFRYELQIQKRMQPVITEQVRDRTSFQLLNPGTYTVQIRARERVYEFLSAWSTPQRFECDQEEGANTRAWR

B1: anti-CD3ε × anti-CD123-dsTrasKO2 (ID 34) (bispecific antibody)
light 1: not shown
heavy 1: not shown
heavy 2: EVQLQQSGPELVKPGASVKMSCKASGYTFTDYYMKWVKQSHGKSLEWIGDIIPSNGATFYNQKFKGKATLTVDRSSSTAYMHLNSLTSEDSAVYYCTRSHLLRASWFAYWGQGTLVTVSAGGGGSGGGGSEVQLVESGGGLVQPGGSLRLSCAASGFNIKDTYIHWVRQAPGKCLEWVAEIYPTNGYTEYADSVKGRFTISADTSKNTAYLQMNSLRAEDTAVYYCSRWGGDGFYAMDYWGQGTLVTVSSDKTHTCPPCPAPEAAGGPSVFLFPPKPKDTLMISRTPEVTCVVVDVSHEDPEVKFNWYVDGVEVHNAKTKPREEQYNSTYRVVSVLTVLHQDWLNGKEYKCKVSNKALPAPIEKTISKAKGQPREPQVCTLPPSRDELTKNQVSLSCAVKGFYPSDIAVEWESNGQPENNYKTTPPVLDSDGSFFLVSKLTVDKSRWQQGNVFSCSVMHEALHNRFTQKSLSLSPG
light 2: not shown
B2: anti-CD3ε × anti-CD123-dsTrasKO2 (ID 37, alternative anti-CD3ε binding domain) (bispecific antibody)
light 1: DIVMTQTPLSLSVTPGQPASISCKSSQSLVHENLQTYLSWYLQKPGQSPQSLIYKVSNRFSGVPDRFSGSGSGTDFTLKISRVEAEDVGVYYCGQGTQYPFTFGSGTKVEIKRTVAAPSVFIFPPSDEQLKSGTASVVCLLNNFYPREAKVQWKVDNALQSGNSQESVTEQDSKDSTYSLSSTLTLSKADYEKHKVYACEVTHQGLSSPVTKSFNRGEC
heavy 1: not shown
heavy 2: EVQLQQSGPELVKPGASVKMSCKASGYTFTDYYMKWVKQSHGKSLEWIGDIIPSNGATFYNQKFKGKATLTVDRSSSTAYMHLNSLTSEDSAVYYCTRSHLLRASWFAYWGQGTLVTVSAGGGGSGGGGSEVQLVESGGGLVQPGGSLRLSCAASGFNIKDTYIHWVRQAPGKCLEWVAEIYPTNGYTEYADSVKGRFTISADTSKNTAYLQMNSLRAEDTAVYYCSRWGGDGFYAMDYWGQGTLVTVSSDKTHTCPPCPAPEAAGGPSVFLFPPKPKDTLMISRTPEVTCVVVDVSHEDPEVKFNWYVDGVEVHNAKTKPREEQYNSTYRVVSVLTVLHQDWLNGKEYKCKVSNKALPAPIEKTISKAKGQPREPQVCTLPPSRDELTKNQVSLSCAVKGFYPSDIAVEWESNGQPENNYKTTPPVLDSDGSFFLVSKLTVDKSRWQQGNVFSCSVMHEALHNRFTQKSLSLSPG
light 2: not shown
notes: also called anti-CD3ε × CD123-dsTrasKO2
B3: anti-CD3ε × anti-CD123 Wild Type (ID 33) (bispecific antibody)
light 1: not shown
heavy 1: not shown
heavy 2: EVQLQQSGPELVKPGASVKMSCKASGYTFTDYYMKWVKQSHGKSLEWIGDIIPSNGATFYNQKFKGKATLTVDRSSSTAYMHLNSLTSEDSAVYYCTRSHLLRASWFAYWGQGTLVTVSAASTKGPSVFPLAPSSKSTSGGTAALGCLVKDYFPEPVTVSWNSGALTSGVHTFPAVLQSSGLYSLSSVVTVPSSSLGTQTYICNVNHKPSNTKVDKKVEPKSCDKTHTCPPCPAPEAAGGPSVFLFPPKPKDTLMISRTPEVTCVVVDVSHEDPEVKFNWYVDGVEVHNAKTKPREEQYNSTYRVVSVLTVLHQDWLNGKEYKCKVSNKALPAPIEKTISKAKGQPREPQVCTLPPSRDELTKNQVSLSCAVKGFYPSDIAVEWESNGQPENNYKTTPPVLDSDGSFFLVSKLTVDKSRWQQGNVFSCSVMHEALHNRFTQKSLSLSPG
light 2: DFVMTQSPSSLTVTAGEKVTMSCKSSQSLLNSGNQKNYLTWYLQKPGQPPKLLIYWASTRESGVPDRFTGSGSGTDFTLTISSVQAEDLAVYYCQNDYSYPYTFGGGTKLEIKRTVAAPSVFIFPPSDEQLKSGTASVVCLLNNFYPREAKVQWKVDNALQSGNSQESVTEQDSKDSTYSLSSTLTLSKADYEKHKVYACEVTHQGLSSPVTKSFNRGEC
notes: Wild type bispecific IgG (first anti-CD3ε arm)
B4: anti-CD3ε-dsTrasKO2 × anti-CD123 (ID 35) (bispecific antibody)
light 1: not shown
heavy 1: not shown
heavy 2: EVQLQQSGPELVKPGASVKMSCKASGYTFTDYYMKWVKQSHGKSLEWIGDIIPSNGATFYNQKFKGKATLTVDRSSSTAYMHLNSLTSEDSAVYYCTRSHLLRASWFAYWGQGTLVTVSAASTKGPSVFPLAPSSKSTSGGTAALGCLVKDYFPEPVTVSWNSGALTSGVHTFPAVLQSSGLYSLSSVVTVPSSSLGTQTYICNVNHKPSNTKVDKKVEPKSCDKTHTCPPCPAPEAAGGPSVFLFPPKPKDTLMISRTPEVTCVVVDVSHEDPEVKFNWYVDGVEVHNAKTKPREEQYNSTYRVVSVLTVLHQDWLNGKEYKCKVSNKALPAPIEKTISKAKGQPREPQVCTLPPSRDELTKNQVSLSCAVKGFYPSDIAVEWESNGQPENNYKTTPPVLDSDGSFFLVSKLTVDKSRWQQGNVFSCSVMHEALHNRFTQKSLSLSPG
light 2: DFVMTQSPSSLTVTAGEKVTMSCKSSQSLLNSGNQKNYLTWYLQKPGQPPKLLIYWASTRESGVPDRFTGSGSGTDFTLTISSVQAEDLAVYYCQNDYSYPYTFGGGTKLEIKRTVAAPSVFIFPPSDEQLKSGTASVVCLLNNFYPREAKVQWKVDNALQSGNSQESVTEQDSKDSTYSLSSTLTLSKADYEKHKVYACEVTHQGLSSPVTKSFNRGEC
notes: CD3ε arm is the pseudoFab (dsTrasKO2); also called anti-CD3E-dsTrasKO2 × anti-CD123
B5: anti-TNP × anti-CD123 Negative control Wild Type (ID 42) (bispecific antibody)
light 1: DVVMTQSPLSLPVTLGQPASISCRSSQSLVHSIGNTYLHWYQQRPGQSPRLLIYKVSNRFSGVPDRFSGSGSGTDFTLKISRVEAEDVGVYYCSQSTHVPFTFGQGTKLEIKRTVAAPSVFIFPPSDEQLKSGTASVVCLLNNFYPREAKVQWKVDNALQSGNSQESVTEQDSKDSTYSLSSTLTLSKADYEKHKVYACEVTHQGLSSPVTKSFNRGEC
heavy 1: not shown
heavy 2: EVQLQQSGPELVKPGASVKMSCKASGYTFTDYYMKWVKQSHGKSLEWIGDIIPSNGATFYNQKFKGKATLTVDRSSSTAYMHLNSLTSEDSAVYYCTRSHLLRASWFAYWGQGTLVTVSAASTKGPSVFPLAPSSKSTSGGTAALGCLVKDYFPEPVTVSWNSGALTSGVHTFPAVLQSSGLYSLSSVVTVPSSSLGTQTYICNVNHKPSNTKVDKKVEPKSCDKTHTCPPCPAPEAAGGPSVFLFPPKPKDTLMISRTPEVTCVVVDVSHEDPEVKFNWYVDGVEVHNAKTKPREEQYNSTYRVVSVLTVLHQDWLNGKEYKCKVSNKALPAPIEKTISKAKGQPREPQVCTLPPSRDELTKNQVSLSCAVKGFYPSDIAVEWESNGQPENNYKTTPPVLDSDGSFFLVSKLTVDKSRWQQGNVFSCSVMHEALHNRFTQKSLSLSPG
light 2: DFVMTQSPSSLTVTAGEKVTMSCKSSQSLLNSGNQKNYLTWYLQKPGQPPKLLIYWASTRESGVPDRFTGSGSGTDFTLTISSVQAEDLAVYYCQNDYSYPYTFGGGTKLEIKRTVAAPSVFIFPPSDEQLKSGTASVVCLLNNFYPREAKVQWKVDNALQSGNSQESVTEQDSKDSTYSLSSTLTLSKADYEKHKVYACEVTHQGLSSPVTKSFNRGEC
B6: anti-CD3ε × anti-CD123 Wild Type (ID 36, alternative anti-CD3ε binding domain) (bispecific antibody)
light 1: DIVMTQTPLSLSVTPGQPASISCKSSQSLVHENLQTYLSWYLQKPGQSPQSLIYKVSNRFSGVPDRFSGSGSGTDFTLKISRVEAEDVGVYYCGQGTQYPFTFGSGTKVEIKRTVAAPSVFIFPPSDEQLKSGTASVVCLLNNFYPREAKVQWKVDNALQSGNSQESVTEQDSKDSTYSLSSTLTLSKADYEKHKVYACEVTHQGLSSPVTKSFNRGEC
heavy 1: not shown
heavy 2: EVQLQQSGPELVKPGASVKMSCKASGYTFTDYYMKWVKQSHGKSLEWIGDIIPSNGATFYNQKFKGKATLTVDRSSSTAYMHLNSLTSEDSAVYYCTRSHLLRASWFAYWGQGTLVTVSAASTKGPSVFPLAPSSKSTSGGTAALGCLVKDYFPEPVTVSWNSGALTSGVHTFPAVLQSSGLYSLSSVVTVPSSSLGTQTYICNVNHKPSNTKVDKKVEPKSCDKTHTCPPCPAPEAAGGPSVFLFPPKPKDTLMISRTPEVTCVVVDVSHEDPEVKFNWYVDGVEVHNAKTKPREEQYNSTYRVVSVLTVLHQDWLNGKEYKCKVSNKALPAPIEKTISKAKGQPREPQVCTLPPSRDELTKNQVSLSCAVKGFYPSDIAVEWESNGQPENNYKTTPPVLDSDGSFFLVSKLTVDKSRWQQGNVFSCSVMHEALHNRFTQKSLSLSPG
light 2: DFVMTQSPSSLTVTAGEKVTMSCKSSQSLLNSGNQKNYLTWYLQKPGQPPKLLIYWASTRESGVPDRFTGSGSGTDFTLTISSVQAEDLAVYYCQNDYSYPYTFGGGTKLEIKRTVAAPSVFIFPPSDEQLKSGTASVVCLLNNFYPREAKVQWKVDNALQSGNSQESVTEQDSKDSTYSLSSTLTLSKADYEKHKVYACEVTHQGLSSPVTKSFNRGEC

In general, Kd refers to a measure of binding affinity in units of concentration. The low end stands for higher affinity, the high end for lower affinity.

The assay has as its target T1, human CD123-Fc-His fusion protein …. The assay can be described thus: SPR, Biacore 8K; CD123-Fc-His captured by anti-His, antibody as analyte, 1:1 Langmuir fit. As to the method: Binding of antigens to the antibody constructs was measured using surface plasmon resonance (SPR) with a BIAcore 8K instrument (GE Healthcare) with HBS-EP+ buffer (GE Healthcare). For binding kinetics and affinity determination human CD3εδ-Fc-His and human CD123-Fc-His fusion proteins (both from internal source) were used as antigens. The anti-His capture antibody (His capture kit, GE Life Sciences) was immobilized via primary amine groups (11000 RU) on a research grade CM5 chip (GE Life Sciences) using standard procedures. Antigens were captured by the anti-His capture chip surface at a flow rate of 10 μL/min for 90 sec to reach antibody binding levels between 10 and 30 RU. […] Dissociation was measured at 30 μL/min by injection of HBS-EP+ buffer for 1200 sec. The chip surface was regenerated by inject of regeneration buffer (His capture kit, GE Life Sciences). Sensorgrams were double referenced with a blank chip surface and H BS-EP+ buffer blanks. Data were fitted with a 1:1 Langmuir binding model for determination of kinetic and affinity constants ka, kd and KD using Biacore 8K Evaluation software v1.11.7442 (GE Healthcare).
(SPR reads the build-up and loss of mass on a sensor chip optically.)
B1 came in with a Kd of 0.239 nM.
As for B2, the figure is 0.386 nM; as for B3, 0.212 nM.
The molecule B4 registered a Kd of 0.257 nM.
Molecule B5 showed a Kd of 0.231 nM.
In turn, B6 returned a Kd of 0.352 nM.

The values above are taken from patent US20230391888A1 (Sanofi, published 2023).
